Read-outs that look alike come from different tables or passages of the source.
Experiments:
[1] = test system: hLTBP1-/hLTBP3-proTGFβ1 vs hGARP-/hLRRC33-proTGFβ1 complexes; test: Solution equilibrium titration: relative affinity (bias) LTBP complexes vs cell-associated complexes; type: binding, human; details: for Kd / (H) G/D (fold bias): MSD-SET; for (H) G/D (fold bias): ratio of average KD cell-associated / matrix-associated
Excerpt: Context-biased: As used herein, “context-biased antibodies” refer to a type of conformational antibodies that binds an antigen with differential affinities when the antigen is associated with (i.e., bound to or attached to) an interacting protein or a fragment thereof. Thus, a context-biased antibody that specifically binds an epitope within proTGFβ1 may bind LTBP1-proTGFβ1, LTBP3-proTGFβ1, GARP-proTGFβ1 and LRRC33-proTGFβ1 with different affinities. […] Relative affinities of [matrix-associated complexes]: [cell-associated complexes] may be obtained by taking average KD values of the former, taking average KD values of the latter, and calculating the ratio of the two, as exemplified herein.
In a yet further aspect, the present disclosure provides context-biased TGFβ1 inhibitors. The context-biased antibodies include LTBP-biased antibodies with higher affinities for ECM-associated LLCs than for cell-associated LLCs wherein the affinities are measured at equilibrium.

[2] = target: T1, recombinant human LTBP3-proTGFβ1 complex (Homo sapiens, UniProt P01137); test: Octet (Biolayer Interferometry) in vitro kinetic binding; details: in M
T1 construct: made in house; host or cells: Expi293F cells, transient co-transfection
Excerpt: (§1) Biolayer Interferometry (BLI):BLI is a label-free technology for optically measuring biomolecular interactions, e.g., between a ligand immobilized on the biosensor tip surface and an analyte in solution. BLI provides the ability to monitor binding specificity, rates of association and dissociation, or concentration, with precision and accuracy. BLI platform instruments are commercially available, for example, from ForteBio and are commonly referred to as the Octet® System.
(§2) BLI-based binding assays are widely used in the art for measuring affinities and kinetics of antibodies to antigens. It is a label-free technology in which biomolecular interactions are analyzed on the basis of optical interference. One of the proteins, for example, an antibody being tested, can be immobilized on the biosensor tip. When the other protein in solution, for example, an antigen, becomes bound to the immobilized antibody, it causes a shift in the interference pattern, which can be measured in real-time. This allows the monitoring of binding specificity, rates of association and dissociation, as well as concentration dependency. […] Due to its ease of use and fast results, BLI-based assays such as the Octet® system (available from ForteBio/Molecular Devices, Fremont Calif.), are particularly convenient when used as an initial screening method to identify and separate a pool of “binders” from a pool of “non-binders” or “weak binders” in the screening process.
(§3) Table 8 below provides non-limiting examples of high-affinity, context-independent proTGFβ1 antibodies encompassed by the present invention. The table provides representative results from in vitro binding assays, as measured by Octet®.
(§4) Column (A) of the table lists monoclonal antibodies with discrete amino acid sequences. […] Columns (B), (D), (E) and (F) provide affinities of each of the listed antibodies, measured in KD. […] Average KD values of (B) and (C) are shown in the corresponding column (D), which collectively represents affinities of the antibodies to ECM- or matrix-associated proTGFβ1 complexes. Similarly, Average KD values of (E) and (F) are shown in the corresponding column (G), which collectively represents affinities of the antibodies to cell-surface or cell-associated proTGFβ1 complexes. Finally, relative ratios between the average KD values from columns (D) and (G) are expressed as “fold bias” in column (H). Thus, the greater the number of column (H) is, the greater bias exists for the particular antibody, when comparing binding preferences of the antibody for matrix-associated complexes and cell-surface complexes. This is one way of quantitatively representing and comparing inherent bias of antibodies to their target complexes. Such analyses may be useful in guiding the selection process for a candidate antibody for particular therapeutic use.
(§5) In some embodiments, the binding affinity of an antibody, or antigen binding portion thereof, to an antigen (e.g., protein complex), such as presenting molecule-proTGFβ1 complexes, is determined using an Octet assay. In some embodiments, an Octet assay is an assay that determines one or more a kinetic parameters indicative of binding between an antibody and antigen. In some embodiments, an Octet® system (ForteBio, Menlo Park, Calif.) is used to determine the binding affinity of an antibody, or antigen binding portion thereof, to presenting molecule-proTGFβ1 complexes. For example, binding affinities of antibodies may be determined using the fortéBio Octet QKe dip and read label free assay system utilizing bio-layer interferometry. In some embodiments, antigens are immobilized to biosensors (e.g., streptavidin-coated biosensors) and the antibodies and complexes (e.g., biotinylated presenting molecule-proTGFβ1 complexes) are presented in solution at high concentration ([…]) to measure binding interactions. […]

[3] = target: T2, recombinant human LTBP1-proTGFβ1 complex (Homo sapiens, UniProt P01137); test: as above; details: in M
T2 construct: made in house; host or cells: Expi293F cells, transient co-transfection
Excerpt: as §1, §2, §3, §4, §5

[4] = target: T3, recombinant human LRRC33-proTGFβ1 complex (Homo sapiens, UniProt P01137); test: as above; details: in M
T3 construct: made in house
Excerpt: as §1, §2, §3, §4, §5

[5] = target: T4, recombinant human GARP-proTGFβ1 complex (Homo sapiens, UniProt P01137); test: as above; details: in M
T4 construct: made in house
Excerpt: as §1, §2, §3, §4, §5

[6] = test system: matrix-associated (LTBP1/LTBP3) and cell-associated (GARP/LRRC33) proTGFβ1 complexes; test: Octet: average KD and fold bias, matrix- vs cell-associated complexes; type: binding, human; details: average KD of (B) and (C), read-out: (D) ECM AVRG
[7] = test system: matrix-associated (LTBP1/LTBP3) and cell-associated (GARP/LRRC33) proTGFβ1 complexes; test: as above; type: binding, human; details: for Kd: average KD of (E) and (F), cell-associated complexes, read-out: (G) Cell AVRG; for (H) G/D (fold bias): ratio of average KD cell-associated / matrix-associated
Excerpt: Column (A) of the table lists monoclonal antibodies with discrete amino acid sequences. […] Columns (B), (D), (E) and (F) provide affinities of each of the listed antibodies, measured in KD. […] Average KD values of (B) and (C) are shown in the corresponding column (D), which collectively represents affinities of the antibodies to ECM- or matrix-associated proTGFβ1 complexes. Similarly, Average KD values of (E) and (F) are shown in the corresponding column (G), which collectively represents affinities of the antibodies to cell-surface or cell-associated proTGFβ1 complexes. Finally, relative ratios between the average KD values from columns (D) and (G) are expressed as “fold bias” in column (H). […] This is one way of quantitatively representing and comparing inherent bias of antibodies to their target complexes.
Average KD values between the two matrix-associated and cell-associated complexes are calculated, respectively (see columns (D) and (G)). These average KD values can then be used to ask whether bias in binding activities exists between complexes associated with matrix vs. complexes associated with cell surface (e.g., immune cells). Bias may be expressed as “fold-difference” in the average KD values, as illustrated in Table 8.

[8] = average KD of (E) and (F), read-out: (G) Cell AVRG
[9] = average KD of (B) and (C), read-out: (D) ECM AVRG

T1 sequence (P01137 30-390): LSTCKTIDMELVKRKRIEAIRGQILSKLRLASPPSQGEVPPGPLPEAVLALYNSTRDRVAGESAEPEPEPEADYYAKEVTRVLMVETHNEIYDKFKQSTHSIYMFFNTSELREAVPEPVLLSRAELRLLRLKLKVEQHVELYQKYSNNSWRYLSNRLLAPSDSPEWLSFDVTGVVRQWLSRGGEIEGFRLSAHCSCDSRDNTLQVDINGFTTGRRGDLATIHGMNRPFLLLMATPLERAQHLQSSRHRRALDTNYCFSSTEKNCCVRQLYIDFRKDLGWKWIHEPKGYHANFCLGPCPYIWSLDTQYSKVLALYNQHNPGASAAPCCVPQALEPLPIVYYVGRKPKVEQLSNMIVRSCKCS
T1 sequence (Q9NS15 866-1039 partner limits assumed): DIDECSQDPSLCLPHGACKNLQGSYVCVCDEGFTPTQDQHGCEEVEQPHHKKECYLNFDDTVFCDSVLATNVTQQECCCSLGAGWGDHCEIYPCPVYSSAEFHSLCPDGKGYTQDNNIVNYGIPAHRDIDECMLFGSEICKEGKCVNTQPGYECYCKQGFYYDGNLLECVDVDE
T4 sequence (P01137 30-390): as the sequence (P01137 30-390) above
T4 sequence (Q14392 20-627 partner limits assumed): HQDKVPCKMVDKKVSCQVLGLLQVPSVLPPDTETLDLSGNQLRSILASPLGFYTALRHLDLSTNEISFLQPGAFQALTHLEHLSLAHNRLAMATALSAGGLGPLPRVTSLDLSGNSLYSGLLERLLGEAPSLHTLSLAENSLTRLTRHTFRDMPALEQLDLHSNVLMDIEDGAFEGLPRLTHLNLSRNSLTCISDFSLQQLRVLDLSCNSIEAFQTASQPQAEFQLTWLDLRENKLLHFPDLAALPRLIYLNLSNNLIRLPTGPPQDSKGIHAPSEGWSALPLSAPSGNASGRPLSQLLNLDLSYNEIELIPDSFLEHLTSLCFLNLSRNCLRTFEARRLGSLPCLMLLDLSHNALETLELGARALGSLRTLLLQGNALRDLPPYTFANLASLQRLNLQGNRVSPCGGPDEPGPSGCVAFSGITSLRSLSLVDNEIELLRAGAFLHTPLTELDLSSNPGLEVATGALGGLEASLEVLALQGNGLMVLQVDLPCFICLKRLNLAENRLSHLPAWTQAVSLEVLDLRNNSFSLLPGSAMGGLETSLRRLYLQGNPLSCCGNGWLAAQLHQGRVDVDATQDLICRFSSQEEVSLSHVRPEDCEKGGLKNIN
T3 sequence (P01137 30-390): as the sequence (P01137 30-390) above
T3 sequence (Q86YC3 19-650 partner limits assumed): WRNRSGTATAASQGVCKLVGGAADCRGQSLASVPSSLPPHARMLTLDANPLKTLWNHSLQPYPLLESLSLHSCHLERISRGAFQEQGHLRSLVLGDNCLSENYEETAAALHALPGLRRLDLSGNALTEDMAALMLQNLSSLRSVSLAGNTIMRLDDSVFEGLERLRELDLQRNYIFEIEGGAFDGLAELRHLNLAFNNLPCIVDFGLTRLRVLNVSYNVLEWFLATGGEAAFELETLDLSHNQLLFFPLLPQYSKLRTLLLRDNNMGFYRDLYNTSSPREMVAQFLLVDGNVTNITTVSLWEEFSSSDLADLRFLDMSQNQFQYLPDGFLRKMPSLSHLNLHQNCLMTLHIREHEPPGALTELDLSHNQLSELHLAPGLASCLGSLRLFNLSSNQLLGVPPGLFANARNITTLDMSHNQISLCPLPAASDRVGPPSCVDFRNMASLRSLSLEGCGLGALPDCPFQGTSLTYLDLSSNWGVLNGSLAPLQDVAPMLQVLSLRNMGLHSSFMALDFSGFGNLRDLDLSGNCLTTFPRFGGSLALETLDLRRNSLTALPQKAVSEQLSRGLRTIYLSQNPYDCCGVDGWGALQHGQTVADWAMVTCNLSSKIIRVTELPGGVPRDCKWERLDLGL
T2 sequence (P01137 30-390): as the sequence (P01137 30-390) above
T2 sequence (Q14766 873-1507 partner): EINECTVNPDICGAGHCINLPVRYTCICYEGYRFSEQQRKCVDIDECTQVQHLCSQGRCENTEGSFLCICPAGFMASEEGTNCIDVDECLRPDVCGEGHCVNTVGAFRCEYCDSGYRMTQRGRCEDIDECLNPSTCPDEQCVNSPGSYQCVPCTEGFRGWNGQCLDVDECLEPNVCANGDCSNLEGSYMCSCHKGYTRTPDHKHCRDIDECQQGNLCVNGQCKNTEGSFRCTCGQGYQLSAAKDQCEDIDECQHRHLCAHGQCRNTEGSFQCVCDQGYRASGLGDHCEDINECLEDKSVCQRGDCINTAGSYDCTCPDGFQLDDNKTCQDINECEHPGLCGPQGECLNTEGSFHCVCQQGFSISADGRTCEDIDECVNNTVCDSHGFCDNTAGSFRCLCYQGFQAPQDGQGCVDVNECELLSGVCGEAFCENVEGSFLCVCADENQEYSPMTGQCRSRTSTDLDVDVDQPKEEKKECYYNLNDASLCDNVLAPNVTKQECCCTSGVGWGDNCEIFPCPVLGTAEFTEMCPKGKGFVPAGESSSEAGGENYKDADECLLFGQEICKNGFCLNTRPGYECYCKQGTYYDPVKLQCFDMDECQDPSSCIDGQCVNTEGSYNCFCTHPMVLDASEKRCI

B1: Ab11: monoclonal antibody; VH SEQ ID NO: 239, VL SEQ ID NO: 241 (antibody, V domains shown)
VH: EVQLLESGGGLVQPGGSLRLSCAASGFTFRNYAMSWVRQAPGKGLEWVSSISGSGGATYYADSVKGRFTISRDNSKNTLYLQMNSLRAEDTAVYYCARVSSGHWDFDYWGQGTLVTVSS
VL: DIQLTQSPSSLSASVGDRVTITCRASQSISSYLNWYQQKPGKAPKLLIYAASNLQSGVPSRFSGSGSGTDFTLTISSLQPEDFATYYCQQTYTVPLTFGGGTKVEIK
[1]
  matrix/LTBP-bias in relative affinities between at least one matrix-associated and at least one cell-associated complex: more than five-fold
  (H) G/D (fold bias): 3.87 fold
[1]; [8]
  Kd: 4.65 nM
[2]
  (C) hLTBP3, Matrix-associated proTGFb1 (KD): 1.54E−10
[3]
  (B) hLTBP1, Matrix-associated proTGFb1 (KD): 1.67E−10
[4]
  (F) hLRRC33, Cell-associated proTGFb1 (KD): 5.55E−10
[5]
  (E) hGARP, Cell-associated proTGFb1 (KD): 8.42E−10
[6]
  Kd: 0.161 nM
[7]
  Kd: 0.699 nM
  (H) G/D (fold bias): 4.352 fold

B2: Ab20: monoclonal antibody; VH SEQ ID NO: 251, VL SEQ ID NO: 241 (antibody, V domains shown)
VH: EVQLLESGGGLVQPGGSLRLSCAASGFTFSAYAMTWVRQAPGKGLEWVSAISGSGGVTYYADSVKGRFTISRDNSKNTLYLQMNSLRAEDTAVYYCARVSSGHWDYDYWGQGTLVTVSS
VL: DIQLTQSPSSLSASVGDRVTITCRASQSISSYLNWYQQKPGKAPKLLIYAASNLQSGVPSRFSGSGSGTDFTLTISSLQPEDFATYYCQQTYTVPLTFGGGTKVEIK
[1]
  matrix/LTBP-bias in relative affinities between at least one matrix-associated and at least one cell-associated complex: more than five-fold
  (H) G/D (fold bias): 6.75 fold
[1]; [9]
  Kd: 0.2 nM
[1]; solution equilibrium titration
  average affinity for human LTBP1-/LTBP3-proTGFβ1 relative to human GARP-/LRRC33-proTGFβ1 complexes (LTBP-biased): proTGFβ1 and LTBP3-proTGFβ1 complexes is at least five-fold
[2]
  (C) hLTBP3, Matrix-associated proTGFb1 (KD): 1.31E−10
[3]
  (B) hLTBP1, Matrix-associated proTGFb1 (KD): 1.92E−10
[4]
  (F) hLRRC33, Cell-associated proTGFb1 (KD): 5.45E−10
[5]
  (E) hGARP, Cell-associated proTGFb1 (KD): 8.84E−10
[6]
  Kd: 0.162 nM
[7]
  Kd: 0.715 nM
  (H) G/D (fold bias): 4.424 fold

B3: Ab22: monoclonal antibody; VH SEQ ID NO: 130, VL SEQ ID NO: 15 (antibody, V domains shown)
VH: EVQLVESGGGLVQPGGSLRLSCAASGFTFGSFSMNWVRQAPGKGLEWVSYIHSDASTIYYADSVKGRFTISRDNAKNSLYLQMNSLRAEDTAVYYCARGVLDYGDMLDPWGQGTLVTVSS
VL: DIQMTQSPSSLSASVGDRVTITCQASQDITNYLNWYQQKPGKAPKLLIYDASNLETGVPSRFSGSGSGTDFTFTISSLQPEDIATYYCQQADNHPPWTFGGGTKVEIK
[1]; [9]
  Kd: 0.042 nM
[1]; [8]
  Kd: 0.114 nM
[1]
  (H) G/D (fold bias): 2.71 fold
[2]
  (C) hLTBP3, Matrix-associated proTGFb1 (KD): 3.29E−10
[3]
  (B) hLTBP1, Matrix-associated proTGFb1 (KD): 3.18E−10
[4]
  (F) hLRRC33, Cell-associated proTGFb1 (KD): 4.15E−10
[5]
  (E) hGARP, Cell-associated proTGFb1 (KD): 9.74E−10
[6]
  Kd: 0.324 nM
[7]
  Kd: 0.695 nM
  (H) G/D (fold bias): 2.147 fold

B4: Ab24: monoclonal antibody; VH SEQ ID NO: 132, VL SEQ ID NO: 15 (antibody, V domains shown)
VH: EVQLVESGGGLVQPGRSLRLSCAASGFTFSSFAMYWVRQAPGKGLEWVSYISPDASTIYYADSVKGRFTISRDNAKNSLYLQMNSLRAEDTAVYYCARGVLDYGDMLDPWGQGTLVTVSS
VL: DIQMTQSPSSLSASVGDRVTITCQASQDITNYLNWYQQKPGKAPKLLIYDASNLETGVPSRFSGSGSGTDFTFTISSLQPEDIATYYCQQADNHPPWTFGGGTKVEIK
[1]; [9]
  Kd: 0.023 nM
[1]; [8]
  Kd: 0.1 nM
[1]
  (H) G/D (fold bias): 4.35 fold
[2]
  (C) hLTBP3, Matrix-associated proTGFb1 (KD): 1.98E−10
[3]
  (B) hLTBP1, Matrix-associated proTGFb1 (KD): 2.46E−10
[4]
  (F) hLRRC33, Cell-associated proTGFb1 (KD): 4.10E−10
[5]
  (E) hGARP, Cell-associated proTGFb1 (KD): 6.65E−10
[6]
  Kd: 0.222 nM
[7]
  Kd: 0.537 nM
  (H) G/D (fold bias): 2.421 fold

B5: Ab26: monoclonal antibody; VH SEQ ID NO: 134, VL SEQ ID NO: 15 (antibody, V domains shown)
VH: EVQLVESGGGLVQPGGSLRLSCAASGFTFSSFSMDWVRQAPGKGLEWVSYISPDASTIYYADSVKGRFTISRDNAKNTLYLQMNSLRAEDTAVYYCARGVLDYGDMLDPWGQGTLVTVSS
VL: DIQMTQSPSSLSASVGDRVTITCQASQDITNYLNWYQQKPGKAPKLLIYDASNLETGVPSRFSGSGSGTDFTFTISSLQPEDIATYYCQQADNHPPWTFGGGTKVEIK
[1]; [9]
  Kd: 0.026 nM
[1]; [8]
  Kd: 0.072 nM
[1]
  (H) G/D (fold bias): 2.77 fold
[2]
  (C) hLTBP3, Matrix-associated proTGFb1 (KD): 1.73E−10
[3]
  (B) hLTBP1, Matrix-associated proTGFb1 (KD): 2.21E−10
[4]
  (F) hLRRC33, Cell-associated proTGFb1 (KD): 3.60E−10
[5]
  (E) hGARP, Cell-associated proTGFb1 (KD): 6.25E−10
[6]
  Kd: 0.197 nM
[7]
  Kd: 0.492 nM
  (H) G/D (fold bias): 2.500 fold

B6: Ab29: monoclonal antibody; VH SEQ ID NO: 137, VL SEQ ID NO: 15 (antibody, V domains shown)
VH: EVQLVESGGGLVQPGRSLRLSCAASGFTFSSFAMNWVRQAPGKGLEWVSYISPDASTIYYAGSVKGRFTISRDNAKNSLYLQMNSLRAEDTAVYYCVRAVLDYGDMLDPWGQGTLVTVSS
VL: DIQMTQSPSSLSASVGDRVTITCQASQDITNYLNWYQQKPGKAPKLLIYDASNLETGVPSRFSGSGSGTDFTFTISSLQPEDIATYYCQQADNHPPWTFGGGTKVEIK
[1]; [8]
  Kd: 0.024 nM
[1]
  (H) G/D (fold bias): 2.00 fold
[2]
  (C) hLTBP3, Matrix-associated proTGFb1 (KD): 1.21E−10
[3]
  (B) hLTBP1, Matrix-associated proTGFb1 (KD): 1.89E−10
[4]
  (F) hLRRC33, Cell-associated proTGFb1 (KD): 3.02E−10
[5]
  (E) hGARP, Cell-associated proTGFb1 (KD): 3.07E−10
[6]
  Kd: 0.155 nM
[7]
  Kd: 0.304 nM
  (H) G/D (fold bias): 1.965 fold
